{"source": "paper PMC9952435", "about": "“Characterization of Two Novel AmpC Beta-Lactamases from the Emerging Opportunistic Pathogen, Cedecea neteri” (Antibiotics, 2023)", "key": {"[1]": {"biological_target": "rAmpC CNE-1 from C. neteri SSMD04 (Cedecea neteri, UniProt A0A089PY88)", "settings": "CNE-1 compared with CDA-1 (ref 13)"}, "[2]": {"test_system": "rAmpC CMH-4 from E. cloacae 13047", "test": "Assay for ESAC and class B metallo-β-lactamase activity (nitrocefin hydrolysis with clavulanic acid or EDTA)", "type": "biochemical", "settings": "2 mM test substance, 500 nM rAmpC, 500 µM nitrocefin, 30 °C, 8 min", "method": "(§1) The reactions carried out in the absence and presence of EDTA with purified rAmpC enzymes using the reporter substrate, nitrocefin, were performed. […] The class C β-lactamases are functionally cephalosporinases that are generally resistant to clavulanic acid. However, some AmpCs which show resistance to oxyimino-cephalosporins and are commonly sensitive to clavulanic acid were termed extended-spectrum AmpC β-lactamases (ESAC), similar to the extended-spectrum β-lactamases (ESBLs) of the A class according to the Bush-Jacoby classification. […] To test this aspect of ESAC activity, reactions were performed in the presence of clavulanic acid.\n(§2) For each panel, all reactions contained 500 nM rAMpC protein and 500 µM nitrocefin.\n(§3) The reactions testing ESBL activity (related to the observation that most ESBL enzymes are inhibited by clavulanic acid) were performed in the absence or presence of 2 mM clavulanic acid. Class B β-Lactamase activity was tested by reactions performed in the absence or presence of 2 mM ethylenediaminetetraacetic acid (EDTA)."}, "[3]": {"test_system": "rAmpC CNE-2 from C. neteri 33855", "test": "Assay for ESAC and class B metallo-β-lactamase activity (nitrocefin hydrolysis with clavulanic acid or EDTA)", "type": "biochemical", "settings": "2 mM test substance, 500 nM rAmpC, 500 µM nitrocefin, 30 °C, 8 min", "method": "as §1, §2, §3"}, "[4]": {"test_system": "rAmpC CNE-1 from C. neteri SSMD04", "test": "Assay for ESAC and class B metallo-β-lactamase activity (nitrocefin hydrolysis with clavulanic acid or EDTA)", "type": "biochemical", "settings": "2 mM test substance, 500 nM rAmpC, 500 µM nitrocefin, 30 °C, 8 min", "method": "as §1, §2, §3"}, "[5]": {"test_system": "CDA-1 (AmpC from C. davisae)", "settings": "cited from earlier work"}, "[6]": {"biological_target": "rAmpC CMH-4 from E. cloacae ATCC 13047 (Enterobacter cloacae subsp. cloacae, UniProt A0A0H3CN55)", "test": "Michaelis-Menten kinetic analysis of substrate hydrolysis by purified rAmpC", "settings": "CMH-4 compared with E. cloacae P99 AmpC (ref 29)"}, "[7]": {"test_system": "CC1=C(C(=O)O)N2C(=O)[C@@H](NC(=O)[C@H](N)c3ccccc3)[C@H]2SC1", "test": "purified protein, by the assay type", "settings": "37.0 °C"}, "[8]": {"test_system": "CO/N=C(\\C(=O)N[C@@H]1C(=O)N2C(C(=O)O)=C(COC(N)=O)CS[C@H]12)c1ccco1", "test": "purified protein, by the assay type", "settings": "37.0 °C"}, "[9]": {"test_system": "Cc1nnc(SCC2=C(C(=O)O)N3C(=O)[C@@H](NC(=O)Cn4cnnn4)[C@H]3SC2)s1", "test": "purified protein, by the assay type", "settings": "37.0 °C"}, "[10]": {"test_system": "CC1(C)S[C@@H]2[C@H](NC(=O)[C@H](N)c3ccccc3)C(=O)N2[C@H]1C(=O)O", "test": "purified protein, by the assay type", "settings": "37.0 °C"}, "[11]": {"test_system": "C[C@@H](O)[C@H]1C(=O)N2C(C(=O)O)=C(SCCN=CN)C[C@H]12", "test": "purified protein, by the assay type", "settings": "37.0 °C"}, "[12]": {"test_system": "CO[C@@]1(NC(=O)Cc2cccs2)C(=O)N2C(C(=O)O)=C(COC(N)=O)CS[C@@H]21", "test": "purified protein, by the assay type", "settings": "37.0 °C"}, "[13]": {"test_system": "O=C(Cc1cccs1)N[C@@H]1C(=O)N2C(C(=O)O)=C(/C=C/c3ccc([N+](=O)[O-])cc3[N+](=O)[O-])CS[C@H]12", "test": "purified protein, by the assay type", "settings": "pH 7.0; 30.0 °C"}}, "data": [{"molecule": "CO[C@@]1(NC(=O)Cc2cccs2)C(=O)N2C(C(=O)O)=C(COC(N)=O)CS[C@@H]21", "note": "[Cefoxitin, cefoxitin]", "values": [{"measurement": "Km, fold higher than for CDA-1 from C. davisae", "setting": "[1]", "result": 100, "unit": "fold"}]}, {"molecule": "O=C(O)CN(CCN(CC(=O)O)CC(=O)O)CC(=O)O", "note": "[EDTA, ethylenediaminetetraacetic acid]", "values": [{"measurement": "Inhibition of nitrocefin hydrolysis", "setting": "[2]", "result": "hydrolyzed the substrate, nitrocefin, in the presence of EDTA"}, {"measurement": "Inhibition of nitrocefin hydrolysis", "setting": "[3]", "result": "hydrolyzed the substrate, nitrocefin, in the presence of EDTA"}, {"measurement": "Inhibition of nitrocefin hydrolysis", "setting": "[4]", "result": "hydrolyzed the substrate, nitrocefin, in the presence of EDTA"}]}, {"molecule": "C[C@@H](O)[C@H]1C(=O)N2C(C(=O)O)=C(SCCN=CN)C[C@H]12", "note": "[Imipenem, imipenem]", "values": [{"measurement": "Km", "setting": "[5]", "result": "~2", "unit": "µM"}]}, {"molecule": "O=C(O)[C@H]1/C(=C/CO)O[C@@H]2CC(=O)N21", "note": "[clavulanic acid]", "values": [{"measurement": "Inhibition of nitrocefin hydrolysis", "setting": "[2]", "result": "completely inhibited"}, {"measurement": "Inhibition of nitrocefin hydrolysis", "setting": "[3]", "result": "not inhibited"}, {"measurement": "Inhibition of nitrocefin hydrolysis", "setting": "[4]", "result": "not inhibited"}]}, {"molecule": "O=C(Cc1cccs1)N[C@@H]1C(=O)N2C(C(=O)O)=C(/C=C/c3ccc([N+](=O)[O-])cc3[N+](=O)[O-])CS[C@H]12", "note": "[nitrocefin]", "values": [{"measurement": "kcat, fold less than for AmpC from E. cloacae P99", "setting": "[6]", "result": "~ 100 fold"}]}, {"molecule": "(Cedecea neteri)", "values": [{"measurement": "Km", "setting": "[7]", "result": 2, "unit": "µM"}, {"measurement": "Km", "setting": "[8]", "result": 5, "unit": "µM"}, {"measurement": "Km", "setting": "[9]", "result": 67, "unit": "µM"}, {"measurement": "Km", "setting": "[10]", "result": 72, "unit": "µM"}, {"measurement": "Km", "setting": "[11]", "result": 5, "unit": "µM"}, {"measurement": "Km", "setting": "[12]", "result": 48, "unit": "µM"}, {"measurement": "Km", "setting": "[13]", "result": "46 ± 5", "unit": "µM"}, {"measurement": "kcat", "setting": "[13]", "result": "1.93 ± 0.16", "unit": "s⁻¹"}, {"measurement": "kcat/Km", "setting": "[13]", "result": 41900, "unit": "M⁻¹ s⁻¹"}]}, {"molecule": "(Enterobacter cloacae subsp. cloacae ATCC 13047)", "values": [{"measurement": "Km", "setting": "[7]", "result": 6.8, "unit": "µM"}, {"measurement": "Km", "setting": "[8]", "result": 0.35, "unit": "µM"}, {"measurement": "Km", "setting": "[10]", "result": 7, "unit": "µM"}, {"measurement": "Km", "setting": "[11]", "result": 0.85, "unit": "µM"}, {"measurement": "Km", "setting": "[12]", "result": 12, "unit": "µM"}, {"measurement": "Km", "setting": "[13]", "result": "11 ± 2", "unit": "µM"}]}]}
